The text below walks through data of article PMC4498601, “Two high-mobility group box domains act together to underwind and kink DNA”.

The target in the data set is T1, HMGB1 box A (Rattus norvegicus (rat), UniProt P63159 8-81).
T1 sequence: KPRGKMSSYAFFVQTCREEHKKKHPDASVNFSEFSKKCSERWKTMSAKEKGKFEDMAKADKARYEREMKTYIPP
The data set can be described thus: X-ray crystallography; 2.0 A; 40 mM MgCl2, 50 mM sodium cacodylate pH 6.0, MPD; two box A per kinked duplex, one further duplex almost unbound; EMSA: 0.33x TBE (30 mM Tris-borate, 0.66 mM EDTA), 3% glycerol, 30 min incubation (temperature not stated), 6% native PAGE at 4 C; crystal complex: 1.6 mM protein, 0.8 mM DNA, about 1 h at 4 C. The note with it: protein: recombinant; tags: GST tag removed by thrombin; chain copies: 2; blunt; self-complementary decamer, 2 copies of the strand.

B1: d(ATATCGATAT)2 (dsDNA)
DNA 1: ATATCGATAT
DNA 2: ATATCGATAT
As for B1, the binding result is “binds”.
